# Experimental data published in patent US6500916B1, “Carrier polymers migrating into target organs and drug-containing polymers” (Ono Pharmaceutical Co., Ltd., priority 1998, dated 2002).
# Key:
# [1] = Biodistribution of [3H]PGE1-containing polymer (Polymer P2) after tail vein injection; type: in vivo, mouse; conditions: i.v., 3H label; for percentage of concentration in 1 ml of plasma: mean±S.D.; for percentage of urinary excretion: Urine
# Protocol: PLGA-HZ-Gal (prepared in Example 3) and PLGA-HZ-Lac (prepared in Example 5) were labeled with ^111In and were injected into mouse through its tail vein at dose of 1 mg/kg to analyze biodistribution of them. The results are shown in Tables 1 and 2 (Each value in Tables means the percentage of concentration in 1 ml of plasma, the percentage of amount of accumulation in each organ and the percentage of urinary excretion of the said PLGA derivatives (mean±S.D.), respectively at various times after administration.).
# Biodistribution of [^3H]PGE1-HZ-PLGA-HZ-Gal (prepared in Example 4, degree of polymerization=97) and [^3H]PGE1-ED-PLGA-ED-Gal (Comparison: the polymer described in International J. Pharmaceutics, 155, 65-74 (1997), degree of polymerization=101) was analyzed by the same procedure as described in Experiment 1. The results are shown in Tables 3 (Invention) and 4 (Comparison) (Each value in Tables means the percentage of concentration in 1 ml of plasma, the percentage of amount of accumulation in each organ and the percentage of urinary excretion of the said [^3H]PGE1 derivatives (mean±S.D.), respectively at various times after administration.).
# [2] = system: CCl4 induced liver damage; assay: Effect on CCl4 induced liver damage (plasma GPT level); type: in vivo; conditions: mouse plasma, 18 hours fasting after CCl4 (10% v/v in sesame oil, 10 ml/kg i.p.); tail vein injection; Free PGE1 0.065 mg/kg, polymer 1 mg/kg
# Protocol: A solution of 10% (v/v) of CCl4 in sesame oil at dose of 10 ml/kg was administered into mouse abdominal cavity, and then drug (saline solution (Control), Free-PGE1 (Comparison), drug (PGE1)-containing polymer of the present invention PGE1-HZ-PLGA-HZ-Lac (reductive) (prepared in Example 6)) were injected into mouse through its tail vein at the setting dose. After the mouse had been fasted for 18 hours (25° C., water was freely given), blood was collected to assay GPT level (IU/L) in plasma.
molecule,measurement,setting,value
"[^3H]PGE1-HZ-PLGA-HZ-Gal (Degree of Polymerization: d^3=0, x^3=29, y^3=32, z^3=31, w^3=5) [[^3H]-PGE1-HZ-PLGA-HZ-Gal]",percentage of amount of accumulation in organ,"[1]; Kidney, 1 min.",1.26 ± 0.23%
same,percentage of amount of accumulation in organ,"[1]; Kidney, 5 min.",1.23 ± 0.06%
same,percentage of amount of accumulation in organ,"[1]; Kidney, 10 min.",0.79 ± 0.14%
same,percentage of amount of accumulation in organ,"[1]; Kidney, 60 min.",0.64 ± 0.22%
same,percentage of amount of accumulation in organ,"[1]; Liver, 1 min.",54.42 ± 0.79%
same,percentage of amount of accumulation in organ,"[1]; Liver, 5 min.",70.39 ± 3.51%
same,percentage of amount of accumulation in organ,"[1]; Liver, 10 min.",80.54 ± 9.52%
same,percentage of amount of accumulation in organ,"[1]; Liver, 60 min. (1 hour)",85.43 ± 3.78%
same,percentage of amount of accumulation in organ,"[1]; Lung, 1 min.",1.88 ± 0.46%
same,percentage of amount of accumulation in organ,"[1]; Lung, 5 min.",1.64 ± 0.56%
same,percentage of amount of accumulation in organ,"[1]; Lung, 10 min.",1.00 ± 0.21%
same,percentage of amount of accumulation in organ,"[1]; Lung, 60 min.",0.44 ± 0.18%
same,percentage of concentration in 1 ml of plasma,[1]; 1 min. after administration,14.33 ± 0.75%
same,percentage of concentration in 1 ml of plasma,[1]; 5 min. after administration,1.64 ± 0.51%
same,percentage of concentration in 1 ml of plasma,[1]; 10 min. after administration,0.40 ± 0.06%
same,percentage of concentration in 1 ml of plasma,[1]; 60 min. after administration,0.26 ± 0.07%
same,percentage of amount of accumulation in organ,"[1]; Spleen, 1 min.",1.11 ± 0.14%
same,percentage of amount of accumulation in organ,"[1]; Spleen, 5 min.",1.85 ± 0.10%
same,percentage of amount of accumulation in organ,"[1]; Spleen, 10 min.",1.24 ± 0.17%
same,percentage of amount of accumulation in organ,"[1]; Spleen, 60 min.",1.84 ± 0.16%
same,percentage of urinary excretion,[1]; 1 min.,0.00 ± 0.00%
same,percentage of urinary excretion,[1]; 5 min.,1.17 ± 1.01%
same,percentage of urinary excretion,[1]; 10 min.,1.79 ± 0.25%
same,percentage of urinary excretion,[1]; 60 min.,1.45 ± 0.83%
"CCCCCC(O)/C=C/C1C(O)CC(=O)C1CCCCCCC(=O)O (centres unmarked) [Free PGE1, PGE1, reference compound]",GPT level,[2],660.89 ± 218.28 IU/L
"PGE1-HZ-PLGA-HZ-Lac (Reductive/degree of Polymerization: d^3=0, x^3=35, y^3=36, z^3=22, w^3=4)",GPT level,[2],239.12 ± 77.482 IU/L
